Measured values as given in article PMC4121237, “Engineering Neprilysin Activity and Specificity to Create a Novel Therapeutic for Alzheimer’s Disease” (PLoS ONE, 2014).

Tests used:
[1] = system: Aβ1–40; assay: Endpoint degradation assay with ELISA read-out; format: biochemical, human; conditions: 1 hour at room temperature; Aβ40 ELISA
Method: Supplementary file pone.0104001.s001.tif: Figure S1 Degradation of Aβ1–40 and Aβ1–42 by NEP wild-type and NEPv. Measurement of the degredation of Aβ1–40 (A) and Aβ1–42 (B) was performed by incubating peptide and either wild-type NEP (▪) or NEPv (Δ) for 1 hour at room temperature. The reaction was stopped by the addition of 1.10-phenanthroline to a final concentration of 10 µM. 50 µl (Aβ40 analysis) or 100 µl (Aβ42 analysis) of the reaction mix was transferred to an ELISA plate. Aβ40 and Aβ42 concentrations after degradation were determined using Invitrogen human Aβ40 ELISA kit (Invitrogen, California, US), and Innotest β-amyloid RUO (1–42) ELISA (Innogenetics, Gent, Belgium). […] (TIF) Click here for additional data file.

[2] = system: Angiotensin; assay: Steady-state kinetics of peptide cleavage, fluorescence polarisation; format: biochemical
Method in brief: (§1)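 Steps: mix peptide substrate (1–200 µM, FAM- and biotin-tagged) with NEP (1–500 nM) in 50 mM HEPES pH 7.4, 100 mM NaCl, 0.05% BSA; incubate at 37°C; quench aliquots at 2–360 min with phenanthroline/avidin; read polarisation. Kcat and KM are obtained by fitting the Michaelis-Menten equation.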

[3] = system: Somatostatin 28; assay: as above; format: biochemical; conditions: substrate Somatostatin 28
Method in brief: as §1

[4] = system: panel of off-target peptides; assay: Steady-state kinetics across the panel of off-target peptides; format: biochemical
Method: For detailed kinetic characterisation of peptide cleavage by NEP, a similar assay to that above was used with modifications based on a published method. Peptides were synthesised by Bachem using 9-fluorenylmethyloxycarbonyl solid-phase peptide synthesis and were labelled with a N-terminal 5(6)FAM via a ε-aminocaproic acid linker and a C-terminal biotin via a lysine linker (Table S1). Purified peptides were supplied as trifluoroacetate salts with a purity ≥95%. The assay was performed in a 96-well microtitre plate and contained 50 mM HEPES (pH 7.4), 100 mM NaCl, 0.05% (w/v) BSA (Buffer A), 1–200 µM peptide substrate and 1–500 nM NEP protein. […] The fluorescence polarisation of the resulting solution was measured on a Victor plate reader and the amount of substrate cleaved was determined with reference to substrate-only controls with and without avidin. […]
Kinetic parameters for cleavage of endothelin-1 by NEP were determined using a stopped assay in which the amount of substrate cleaved was measured using reversed-phase HPLC (RP-HPLC). […] RP-HPLC spectra were recorded using an Agilent 1260 Infinity system. […] Signal intensity for intact endothelin-1 was monitored at 210 nm and relative peak area was determined by manual integration of the baseline. […]
Kinetic parameters for cleavage of a panel of peptides by wild-type NEP and NEPv were determined (Figure 3 and Table 2). […]

[5] = substrate Angiotensin, 37°C, pH 7.4

EC50 [1]: 21.3 nM
B1: NEPv: lead variant at round 2, human NEP ectodomain with the two mutations G399V and G714K (protein, UniProt P08473 52-750, looked up, variant G399V G714K)
extracellular domain: YDDGICKSSDCIKSAARLIQNMDATTEPCTDFFKYACGGWLKRNVIPETSSRYGNFDILRDELEVVLKDVLQEPKTEDIVAVQKAKALYRSCINESAIDSRGGEPLLKLLPDIYGWPVATENWEQKYGASWTAEKAIAQLNSKYGKKVLINLFVGTDDKNSVNHVIHIDQPRLGLPSRDYYECTGIYKEACTAYVDFMISVARLIRQEERLPIDENQLALEMNKVMELEKEIANATAKPEDRNDPMLLYNKMTLAQIQNNFSLEINGKPFSWLNFTNEIMSTVNISITNEEDVVVYAPEYLTKLKPILTKYSARDLQNLMSWRFIMDLVSSLSRTYKESRNAFRKALYVTTSETATWRRCANYVNGNMENAVGRLYVEAAFAGESKHVVEDLIAQIREVFIQTLDDLTWMDAETKKRAEEKALAIKERIGYPDDIVSNDNKLNNEYLELNYKEDEYFENIIQNLKFSQSKQLKKLREKVDKDEWISGAAVVNAFYSSGRNQIVFPAGILQPPFFSAQQSNSLNYGGIGMVIGHEITHGFDDNGRNFNKDGDLVDWWTQQSASNFKEQSQCMVYQYGNFSWDLAGGQHLNGINTLGENIADNGGLGQAYRAYQNYIKKNGEEKLLPGLDLNHKQLFFLNFAQVWCGTYRPEYAVNSIKTDVHSPKNFRIIGTLQNSAEFSEAFHCRKNSYMNPEKKCRVW
modifications: extracellular domain
Km [2, 5]: 13 ± 2 µM
kcat [2, 5]: 0.14 ± 0.007 s⁻¹
Fold change in kcat/KM ([2]; substrate Angiotensin, ratio of wild-type NEP kcat/KM to that of the mutant): 87
reduction in kcat relative to wild-type NEP ([2]; substrate angiotensin): 60 fold
Km ([3]; 37°C, pH 7.4): 47 ± 20 µM
kcat ([3]; 37°C, pH 7.4): 0.086 ± 0.02 s⁻¹
Fold change in kcat/KM ([3]; ratio of wild-type NEP kcat/KM to that of the mutant): 87
reduction in activity on other peptides ([4]; other (off-target) peptides, relative to wild-type): ≤ 3,200 fold
average specificity switch (ratio of the fold change in kcat/KM on Aβ1–40 to that on other peptides) ([4]; panel of 16 peptides): 5,300 fold
